Data on one sequence can be found in patent publication US20220098591.

One may read the Kd as the free concentration of one partner at which half of the binding sites on the other are occupied at equilibrium, for simple one-to-one binding.

One data set deals with T1, VEGF-A165 (Homo sapiens).
T1 sequence: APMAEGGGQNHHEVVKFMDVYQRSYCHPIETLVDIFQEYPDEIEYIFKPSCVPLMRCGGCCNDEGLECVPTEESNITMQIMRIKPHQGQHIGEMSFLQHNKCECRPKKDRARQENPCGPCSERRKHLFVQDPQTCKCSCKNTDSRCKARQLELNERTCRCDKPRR
The note with it: all G 2'-F; A,C,U 2'-OMe; Sp3 (1,3-propanediol) joins the two parts (position 9); 5' C6NH2; 3' idT; direct TR-FRET, RT. (In general: In TR-FRET formats the signal depends on donor and acceptor labels being close together.)

The target of another data set is T2, VEGF-A121 (Homo sapiens) (UniProt P15692).
T2 sequence: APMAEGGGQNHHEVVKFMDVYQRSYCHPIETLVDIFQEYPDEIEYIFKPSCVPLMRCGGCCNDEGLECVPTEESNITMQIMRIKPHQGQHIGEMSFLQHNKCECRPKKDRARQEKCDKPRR
The note with it: all G 2'-F; A,C,U 2'-OMe; Sp3 (1,3-propanediol) joins the two parts (position 9); 5' C6NH2; 3' idT; direct TR-FRET, RT.

As to “AGGCCGCCCCGCGCGGAGGGGUUUCAUUAUCCCGUUUGGCGGCUU [Aptamer 47]”, the results for the Kd in the data set with VEGF-A165 (Homo sapiens) and with VEGF-A121 (Homo sapiens) were 2.1 nM and 11 nM, respectively.
